Assay results reported in PMC11284791.

Experiments:
[1] = molecular target: Triosephosphate isomerase from G. gallus (G. gallus) (UniProt P00940); assay: NMR titration; 2.5 μM [U-15N]-TPI with 1 mM GAP, titrated with 0-30 μM ribosomes; integrated amide proton envelope (6.30-10.54 ppm) of 1H-15N HSQC; 10 mM sodium phosphate pH 7.5, 0.1 M NaCl, 290 K; apparent Kd from the total binding equation with a nonspecific term; the paper calls it an upper limit to Kd
[2] = molecular target: Triosephosphate isomerase from G. gallus (G. gallus) (UniProt P00940); assay: NMR titration; 2.5 μM [U-15N]-TPI with 5 mM DHAP, titrated with 0-30 μM ribosomes; integrated amide proton envelope (6.30-10.54 ppm) of 1H-15N HSQC; 10 mM sodium phosphate pH 7.5, 0.1 M NaCl, 290 K; apparent Kd from the total binding equation with a nonspecific term; the paper calls it an upper limit to Kd

Chain of Triosephosphate isomerase from G. gallus (G. gallus) (P00940 whole entry): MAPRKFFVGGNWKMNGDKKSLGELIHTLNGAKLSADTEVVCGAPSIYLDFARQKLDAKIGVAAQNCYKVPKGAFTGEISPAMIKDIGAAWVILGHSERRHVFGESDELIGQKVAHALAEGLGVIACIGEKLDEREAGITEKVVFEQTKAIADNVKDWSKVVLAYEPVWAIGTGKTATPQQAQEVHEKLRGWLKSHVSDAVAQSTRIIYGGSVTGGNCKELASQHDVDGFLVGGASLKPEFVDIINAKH

Kd [1]: 1210 nM | Kd [2]: 1050 nM
Substance: Intact 70S ribosomes from E. coli MRE600 (from UniProt P0A7K2 1-121; P0A7R1 1-149; P0A7J3 1-165; P0A7J7 1-142; P02413 1-144; P0C018 1-117; P0A7L3 1-118; P61175 1-110; P0AG67 1-557; P02358 1-135; P0A7W7 1-130; P0A7R9 1-129) (complex)
